Laboratory results reported in patent US20040157289.

Columns and labels:
[1] = aggregate size given for comparison with the gel exclusion result, self-association
[2] = Superose gel exclusion chromatography, self-association

| Substance | aggregate size [1] | aggregate size [2] |
| --- | --- | --- |
| wild type α-crystallin (alpha A crystallin) | about 800,000 daltons, depending on solution conditions | – |
| alpha A crystallin Δ51+ construct | – | calculated to be 60,000 daltons, which corresponds in size to a tetramer |
